# From the nanobody polyreactivity screen of Harvey et al. (2022)
# Assay: yeast display, Sf9 membrane polyspecificity reagent, FACS + sequencing; frameworks hold sequencing errors
# Method in brief: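 Nanobodies from a synthetic yeast display library (Saccharomyces cerevisiae BJ5465), induced 36–48 hours with galactose, were stained 1 hour at 4 °C with 10% biotinylated, detergent-solubilized Sf9 membrane reagent, enriched on streptavidin microbeads, then FACS-sorted. Anti-HA (expression) and streptavidin (reagent binding) fluorescence set low and high (top ~1%) gates. Polyreactivity labels come from the gate of origin. Genes were colony-PCR amplified, MiSeq 2 × 250 sequenced and filtered by CDR length.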
row,Sequence,polyreactivity (PSR sort gate)
1,QVQLVESGGGLVQAGGSLRLSCAASGRTFSKYAMGWYRQAPGKERELVAAISKRGGSTSYADSVKGRFTISRDNAKNTVYLQMNSLKPEDTAVYYCAADGNRNYLYWPYGYWGQGTQVTVSS,high polyreactivity
2,QVQLVESGGGLVQAGGSLRLSCAASGRTFSKYTMGWYRQATGKERELVAAIDRSGGSTYYADSVKGRFTISRDNAKNTVYLQMNSLKPEDTAVYYCAAVYYLVPGNYWGHGTQVTVSS,high polyreactivity
3,QVQLVESGGGLVQAGGSLRLSCAASGRTFSNYAMGWYRQAPGKEREFVAGIRYNGGSTYYADSVKGRFTISRDNAKNTVYLQMNSLKPEDTAVYYCAAERWFYRSKFDYWGQGTQVTVSS,high polyreactivity
4,QVQLVESGGGLVQAGGSLRLSCAASGRTFSNYMGWYRQAPGKERELVAAISWRGGTTYYADSVKGRFTISRDNAKNTVYLQMNSLKPEDTAVYYCNADVVRYRHWHRGDYWGQGTQVTVSS,low polyreactivity
5,QVQLVESGGGLVQAGGSLRLSCAASGRTFSPNAMGWYRQAPGKERELVAAITRSDGRTYYADSVKGRFTISRDNAKNTVYLQMNSLKPEDTAVYYCAVDGYYPPAWYEYDYWGQGTQVTVSS,high polyreactivity
6,QVQLVESGGGLVQAGGSLRLSCAASGRTFSPYAMGWYRQAPGKERELVAAITSRGASTYYADSVKGRFTISRDNAKNTVYLQMNSLKPEDTAVYYCNSGRTYRRLGDYWGQGTQVTVSS,high polyreactivity
7,QVQLVESGGGLVQAGGSLRLSCAASGRTFSQYAMGWYRQAPGKERELVAAITSAGSTYYADSVKGRFTISRDNAKNTVYLQMKSLKPEDTAVYYCNARGPSRYTGYSSYYWGQGTQVTVSS,high polyreactivity
8,QVQLVESGGGLVQAGGSLRLSCAASGRTFSQYAMGWYRQPPGKERELVASISWSGGSTYYADSVKGRFTISRDNAKNTVYLQMNSLKPEDTAVYYCAAVGKGSARSSYPVLYDYWGQGTQVTVSS,low polyreactivity
9,QVQLVESGGGLVQAGGSLRLSCAASGRTFSRNAMGWYRQAPGKERELVAAISWSGARTYYADSVKGRFTISRDNAKNTVYLQMNSLKPEDTAVYYCAARVPSWKYDYWGQGTQVTVSS,high polyreactivity
10,QVQLVESGGGLVQAGGSLRLSCAASGRTFSRYAMGWYRQAPGKERELVAAITWSGGDTYYADSVKGRFTISRDNAKNTVYLQMNSLKPEDTAVYYCAAEWGTVGYIRYYAIWSEYDYWGQGTQVTVSS,low polyreactivity
11,QVQLVESGGGLVQAGGSLRLSCAASGRTFSRYAMGWYRQAPGKERELVATISSSGGTTYYADSVKGRFTISRDNAKNTVYLQLNSLKPEDTAVSYCNSEYKIRTHASGFDYWGQGTQVTVSS,low polyreactivity
12,QVQLVESGGGLVQAGGSLRLSCAASGRTFSRYTMGWYRQAPGKEREFVAAISVNGGTTHYADSVKGRFTISRDNAKNTVYLQMNSLKPEDTAVYYCAARNYLARRYGYWGQGTQVTVSS,high polyreactivity
13,QVQLVESGGGLVQAGGSLRLSCAASGRTFSSNAMGWYRQAPGKERELVASISFRGGRTYYADSVKGRFTISRDNAKNTVYLQMYSLKPEDTAVYYCVSGTKRTGYGYWGQGTQVTVSS,high polyreactivity
14,QVQLVESGGGLVQAGGSLRLSCAASGRTFSSYAKGWYRQAPGKERELVAAITSGGSTYYADSVKGRFTISRDNAKNTVYLQMNSLKPDDTAVYYCAAEQHGYYWHSWNRYIFYYWGQGTQVTVSS,high polyreactivity
15,QVQLVESGGGLVQAGGSLRLSCAASGRTFSSYAMGWYRQAPGKEREFVAAISRSGASTRYADSVKGRFTISRDNAKNTVYLQMNSLKPEDTAVYYCAAVWPDVRGYDYWGQGTQVTVSS,high polyreactivity
16,QVQLVESGGGLVQAGGSLRLSCAASGRTFSSYAMGWYRQAPGKERELVAAIDSGGNTYADSVKGRFTISRDNAKNTVYLQMNSLKPEDTAVYYCAVDGGEFSSYGYWGQGTQVTVSS,low polyreactivity
17,QVQLVESGGGLVQAGGSLRLSCAASGRTFSSYAMGWYRQAPGKERELVAAINWSGASTYYADSVKGRFTISRDNAKNTVYLQMNSLKPEDTAVYYCAKSLYVGKYWQIRSSVDYWGQGTQVTVSS,low polyreactivity
18,QVQLVESGGGLVQAGGSLRLSCAASGRTFSTNAMGWYRQAPGKERELVAAITASGGSTYYADSVKGRFTISRDNAKNTVYLQMNSLKPEDTAVYYCAKRYRAYHYGWWYDYWGQGTQVTVSS,high polyreactivity
19,QVQLVESGGGLVQAGGSLRLSCAASGRTFSTYAMGWYRQAPGKERELVAAISTSGSRTYYADSVKGRFTISRDNAKNTVYFQMNSLKPEDTAVYYCAATPLYYRYYVWQYDYWGQGTQVTVSS,high polyreactivity
20,QVQLVESGGGLVQAGGSLRLSCAASGRTFSTYAMGWYRQAPGKERELVAAITTSGGNTYYADSVKGRFTISRDNAKNTVYLQMNSLKPEDTAVYYCNAKQQPYGGTDYDYWGQGTQVTVSS,low polyreactivity
21,QVQLVESGGGLVQAGGSLRLSCAASGRTFSVNAMGWYRPAPGKERELVAAISWDGGSTYYADSVKGRFTISRDNAKNTVYLQMNSLKPEDTAVYYCNKDLYYAYDYWGQGTQVTVSS,low polyreactivity
22,QVQLVESGGGLVQAGGSLRLSCAASGRTFSVNVMGWYRQAPGKERELVAAISWSGGNTYYADSVKGRFTISRDNAKNTVYLQMNSLKPEDTAVYYCNTDFADSNYDSSYGYWGQGTQVTVSS,low polyreactivity

row,Sequence,polyreactivity (PSR sort gate)
1,QVQLVESGGGLVQAGGSLRLSCAASGRTFSVYAMGWYRQAPGKERELVAAISGRGGRTYYADSVKGRFTISRDNAKNTVYLQMNSLKPEDTAVYYCTADVGVYHDDYWGQGTQVTVSS,high polyreactivity
2,QVQLVESGGGLVQAGGSLRLSCAASGRTFSVYAMGWYRQAPGKESELVAGITGNGGSTYYADSVKGRFTISRDNAKNTVYLQMNSLKPEDTAVYYCATAYWDIITRGEYGYWGQGTQVTVSS,low polyreactivity
3,QVQLVESGGGLVQAGGSLRLSCAASGRTFSVYVMGWYRQAPGKERELVAAISSSGGRTYYADSVKGRFTISRDNAKNTVYLQMNSLKPEDTAVYYCAAETIVFYVEYNYWGQGTQVTVSS,low polyreactivity
4,QVQLVESGGGLVQAGGSLRLSCAASGRTFSWNAMGWYRQAPGKERELVAAISNSGGSTYYADSVKGRFTISRDNAKNTVYLQMNSLKPEDTAVYYCAVYRYYGFSLWYDYWGQGTQVTVSS,low polyreactivity
5,QVQLVESGGGLVQAGGSLRLSCAASGRTFSWYAMGWYRQAPGKERELVAAISSSGGSTYYADSVKGRFTISRDNAKNTVYLQMNSLKPEDTAVYYCAVRYYSSLSQRYYSWGQGTQVTVSS,high polyreactivity
6,QVQLVESGGGLVQAGGSLRLSCAASGRTFSWYVMGLYRQAPGKERELVASISGSGGSTYYADSVKGRFTISRDNAKNTVYLQMNSLKPEDTAVYYCARDYFFRSRSDYWGQGTQVTVSS,high polyreactivity
7,QVQLVESGGGLVQAGGSLRLSCAASGRTFSWYVMGWSRQAPGKERALVAAISWNGGRTYYADSVKGRFTISRDNAKNTVYLQMNRLKPEDTAVYYCATGPDPKYDYWGQGTQVTVSS,high polyreactivity
8,QVQLVESGGGLVQAGGSLRLSCAASGRTFSYNAIGWYRQAPGKERTNYADSVKGRFTISRDNAKNTVYLQMNSLKPEDTAVYYCAVEPYLSYPPTSIDNDYDYWGQGTQVTVSS,low polyreactivity
9,QVQLVESGGGLVQAGGSLRLSCAASGRTFSYNTMGWYRQAPGKERELVAAIDSDGSTNYADSVKGRFTISRDNAKNTVYLQMNSLKPEDTAVYYCAADRFQCGFWWLEYWGQGTQVTVSS,high polyreactivity
10,QVQLVESGGGLVQAGGSLRLSCAASGRTFSYYAMGWYRPAPGKEREFVAAISSTGTSTYYADSVKGRFTISRDNAKNTVYLQMNSLKPEDTAVYYCNARVATYRLHSKFYYWGQGTQVTVSS,high polyreactivity
11,QVQLVESGGGLVQAGGSLRLSCAASGRTFSYYAMGWYRQAPGKERELGAANSGGGRTNYADSVKGRFTISRDNAKNTVYLQMNSLKPEDTAVYYCAAGASRKYQYYSRSYDYWGQGTQVTVSS,high polyreactivity
12,QVQLVESGGGLVQAGGSLRLSCAASGRTFSYYAMGWYRQAPGKERELVARITYRGGRTYYADSVKGRFTISRDNAKNTVYLQMNSLKPEDTAVYYCATTSWRYGYDYWGQGSQVTVSS,high polyreactivity
13,QVQLVESGGGLVQAGGSLRLSCAASGRTFSYYTLGWYRQAPGKERELVARISNRGTNTYYADSVKGRFTISRDNAKNTVYLQMNSLKPEDTAVYYCAAYTPPVYWLTRAIRGYYWGQGTQVTVSS,low polyreactivity
14,QVQLVESGGGLVQAGGSLRLSCAASGRTFSYYTMGWYRQAPGKERQLVARISNRGTNTYYADSVKGRFTISRDNAKNTVYLQMNSLKPEDTAVYYCAKYYYTSIVGYDSWGQGTQVTVSS,low polyreactivity
15,QVQLVESGGGLVQAGGSLRLSCAASGRTFTFYAMGWYRQAPGKERELVATISYSGGRTYYADSVKGRFTISRDNAKNTVYLQMNSLKPEDTAVYYCATSVSGPWWKLYYWGQGTQVTVSS,low polyreactivity
16,QVQLVESGGGLVQAGGSLRLSCAASGRTFTGNAMGWYRQAPGKERELVAAISTSGTRTSYADSVKGRFTISRDNAKNTVYLQMNSLKPEDTAVYYCAALRKSLYRTYTYDYWGQGTQVTVSS,high polyreactivity
17,QVQLVESGGGLVQAGGSLRLSCAASGRTFTGNAMGWYRQAPGKVRELVADINLSGGDTYYADSVKGRFTISRDNAKNTVYLQMNSLKPEDTAVYYCAADIVYSSDYGPGDYWGQGTQVTVSS,high polyreactivity
18,QVQLVESGGGLVQAGGSLRLSCAASGRTFTGYAMGWYRQAPGKERELVAAITSNGARTYYADSVKGRFTISRDNAKNTVYLQMNSLKPEDTAVYYCNRVRVYTHTAWGDDYWGQGTQVTVSS,low polyreactivity
19,QVQLVESGGGLVQAGGSLRLSCAASGRTFTGYAMGWYRQAPGKERELVAGISRRGGSTNYADSVKGRFTISRDNSKNTVYLQMNSLKQEDPAVYYCKKRYSLWDEDYWGQGTQVTVSS,high polyreactivity
20,QVQLVESGGGLVQAGGSLRLSCAASGRTFTHYAMGWYRQAPGKERELVAAISRSGGTTYYADSVKGRFTISRDNAKNTVYLQMNSLKPEDTAVYYCAARWWYRYNYDYWGQGTQVTVSS,high polyreactivity
21,QVQLVESGGGLVQAGGSLRLSCAASGRTFTINAMGWYRQAPGKERELVATISYSGGSTRYADSVKGRFTISRDNAKNTVYLQMNSLQPDDTAVYYCAADAGYYGRWYGHGYGYWGQGTQVTVSS,high polyreactivity
